From patent US11168316B2, “Chimeric clotting factors” (Bioverativ Therapeutics Inc., priority 2012, dated 2021)
Ends that are not written are not given here.

Biological target: T1, thrombin (Homo sapiens, UniProt P00734)
T1 construct: followed by 50 μL of thrombin (278 nM, 10 μg/mL)
Test: Cleavage of peptides by 1.4 nM thrombin (HPLC)
Format: biochemical
Conditions: 50 μM peptide, 37° C.
Method: FIG. 19 depicts the cleavage of Compounds 1, 4, 5 and 6 by 1.4 nM thrombin. Compounds 1, 4 and 5 incorporate PABC and different thrombin-cleavable substrates. 50 μL of peptide (1 mM) in water was added to 900 μL PBS. The mixture was incubated at 37° C. for 30 min, followed by 50 μL of thrombin (27.8 nM, 1 μg/mL), giving the following approximate initial concentrations: thrombin=1.4 nM, peptide=50 μM. The mixture was incubated at 37° C. Aliquots (95 μL) at various time points were quenched with 5 μL of hirudin (2 μM) and injected into the HPLC (C-18 column, CH3CN/H2O, 0 to 70% over 12 minutes, 60° C. 0.5 mL/min, λ=280 nm). The decreases of peptide peak areas were used to calculate yield.

thrombin-mediated release of peptide IVGGQE: not observed
Substance: Ala-Leu-Val-Pro-Arg-Ile-Val-Gly-Gly-Gln-Glu-NH2 (ALVPRIVGGQE-NH2; also: PABC self-immolative linker, place not given here) [Compound 6]
